From paper PMC7671478, “Structure of the helicase core of Werner helicase, a key target in microsatellite instability cancers”

Biological target: WRN helicase core (531-950), lacking the WH domain (Homo sapiens, UniProt Q14191 531-950)
Assay: HDX-MS; protein:ssDNA 1:2.5, no nucleotide analogue added; protection of D2 hairpin/motif IV peptide only after 4 h labelling; HDX-MS: WRN stock 16.66 uM in 15 mM Hepes, 150 mM NaCl, pH 7.3; 2 min equilibration with ligand, then 16-fold dilution into deuterated buffer, room temperature, 10 s to 4 h
Conditions: protein: recombinant; tags: N-terminal His-Zbasic tag, TEV-cleaved; single strand

Sequence of WRN helicase core (531-950), lacking the WH domain (Q14191 531-950): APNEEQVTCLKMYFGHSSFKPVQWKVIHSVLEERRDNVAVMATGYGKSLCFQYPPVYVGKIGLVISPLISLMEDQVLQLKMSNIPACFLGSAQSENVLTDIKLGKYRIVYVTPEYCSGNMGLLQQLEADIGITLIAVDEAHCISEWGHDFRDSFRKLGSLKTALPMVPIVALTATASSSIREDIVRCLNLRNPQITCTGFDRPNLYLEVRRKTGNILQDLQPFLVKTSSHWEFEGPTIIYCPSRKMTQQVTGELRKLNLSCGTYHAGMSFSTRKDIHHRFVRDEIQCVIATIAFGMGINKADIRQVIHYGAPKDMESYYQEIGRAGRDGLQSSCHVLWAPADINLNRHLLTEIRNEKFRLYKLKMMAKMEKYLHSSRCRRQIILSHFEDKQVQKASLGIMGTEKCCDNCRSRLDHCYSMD

B1: 25-nt ssDNA (ssDNA)
DNA: CCAGGTCGATAGGTTCGAATTGGTT
  binding result: binds
